From US20210063414A1, “METHODS FOR PREVENTING AND/OR TREATING BONE LOSS CONDITIONS BY MODULATING IRISIN” (Dana-Farber Cancer Institute, Inc., priority 2018, published 2021)

How the values were obtained:
[1] = Half-life of recombinant his-tag irisin in vivo, plasma immunoblot against his-tag; conditions: C57BL/6 mice, 1 mg/kg I.P.
Method: C57BL/6 mice were injected with irisin (1 mg/kg, I.P.) or sterilized PBS and blood was collected at indicated time point. Irisin in plasma was detected using immunoblot analysis against his-tag.

integrin αV/β5 = integrin αV/β5 (Homo sapiens, UniProt P06756+P18084); assay: Differential HDX/MS of irisin and integrin αV/β5; type: binding; conditions: 10 μM irisin, 30 μM integrin αV/β5
Method: Differential HDX-MS experiments were conducted as previously described with a few modifications (Chalmers et al. (2006) Anal. Chen. 78:1005-1014).
Protein samples were injected for inline pepsin digestion and the resulting peptides were identified using tandem MS (MS/MS) with an Orbitrap™ mass spectrometer (Fusion Lumos, ThermoFisher). Following digestion, peptides were desalted on a C8 trap column and separated on a 1 hour linear gradient of 5-40% B (A is 0.3% formic acid and B is 0.3% formic acid 95% CH3CN). Product ion spectra were acquired in data-dependent mode with a one second duty cycle such that the most abundant ions selected for the product ion analysis by higher-energy collisional dissociation between survey scan events occurring once per second. Following MS2 acquisition, the precursor ion was excluded for 16 seconds. […]
HDX-MS analysis: Apo proteins (irisin and integrin αV/β5) were analyzed at 10 μM each. […] The intensity weighted mean m/z centroid value of each peptide envelope was calculated and subsequently converted into a percentage of deuterium incorporation. […] Statistical significance for the differential HDX data was determined by an unpaired t-test for each time point, a procedure that was integrated into the HDX Workbench software (Pascal et al. (2012) J Am. Soc. Mass Spectrom. 23:1512-1521). […]

Sequence of integrin αV/β5 (P18084 24-719 limits assumed): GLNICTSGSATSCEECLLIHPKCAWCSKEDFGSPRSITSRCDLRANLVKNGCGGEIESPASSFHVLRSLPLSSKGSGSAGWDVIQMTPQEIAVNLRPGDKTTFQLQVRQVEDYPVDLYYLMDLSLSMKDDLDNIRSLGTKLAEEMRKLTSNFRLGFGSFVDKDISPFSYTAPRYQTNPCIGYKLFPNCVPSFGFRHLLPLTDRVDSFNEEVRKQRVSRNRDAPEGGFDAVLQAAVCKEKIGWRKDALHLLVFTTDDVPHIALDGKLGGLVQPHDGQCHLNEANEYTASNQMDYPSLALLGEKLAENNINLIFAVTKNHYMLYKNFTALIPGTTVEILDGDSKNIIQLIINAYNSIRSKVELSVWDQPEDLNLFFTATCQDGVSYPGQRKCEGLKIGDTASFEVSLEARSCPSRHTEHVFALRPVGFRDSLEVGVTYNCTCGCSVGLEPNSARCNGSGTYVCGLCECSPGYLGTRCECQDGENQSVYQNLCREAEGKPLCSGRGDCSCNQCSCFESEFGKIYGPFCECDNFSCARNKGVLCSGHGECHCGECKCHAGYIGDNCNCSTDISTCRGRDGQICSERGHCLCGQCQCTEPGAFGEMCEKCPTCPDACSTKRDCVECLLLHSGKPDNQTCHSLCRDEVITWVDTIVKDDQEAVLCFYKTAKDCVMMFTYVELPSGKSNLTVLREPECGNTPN
Sequence of integrin αV/β5 (P06756 31-889 limits assumed): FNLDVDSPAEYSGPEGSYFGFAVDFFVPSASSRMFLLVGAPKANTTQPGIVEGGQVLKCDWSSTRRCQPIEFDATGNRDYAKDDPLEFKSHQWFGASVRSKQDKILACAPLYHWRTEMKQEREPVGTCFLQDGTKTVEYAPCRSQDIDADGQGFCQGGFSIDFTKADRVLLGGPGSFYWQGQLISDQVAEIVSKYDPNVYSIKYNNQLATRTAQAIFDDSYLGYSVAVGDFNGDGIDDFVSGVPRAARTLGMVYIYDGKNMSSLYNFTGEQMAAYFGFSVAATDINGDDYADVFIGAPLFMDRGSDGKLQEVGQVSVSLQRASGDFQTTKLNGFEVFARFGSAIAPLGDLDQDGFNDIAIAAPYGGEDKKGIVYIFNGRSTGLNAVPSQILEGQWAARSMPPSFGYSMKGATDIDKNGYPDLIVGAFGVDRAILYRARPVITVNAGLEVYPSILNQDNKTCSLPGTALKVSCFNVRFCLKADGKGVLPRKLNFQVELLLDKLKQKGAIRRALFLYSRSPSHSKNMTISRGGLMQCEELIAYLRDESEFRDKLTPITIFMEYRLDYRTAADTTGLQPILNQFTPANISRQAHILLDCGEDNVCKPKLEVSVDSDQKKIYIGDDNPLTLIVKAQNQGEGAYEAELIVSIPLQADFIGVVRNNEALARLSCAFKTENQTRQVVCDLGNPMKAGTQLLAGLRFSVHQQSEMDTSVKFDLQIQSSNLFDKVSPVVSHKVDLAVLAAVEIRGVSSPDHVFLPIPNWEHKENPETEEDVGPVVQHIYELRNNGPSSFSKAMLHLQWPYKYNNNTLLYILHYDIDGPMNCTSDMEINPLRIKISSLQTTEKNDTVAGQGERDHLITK
Sequence of integrin αV/β5 (P06756 891-992 partner limits assumed): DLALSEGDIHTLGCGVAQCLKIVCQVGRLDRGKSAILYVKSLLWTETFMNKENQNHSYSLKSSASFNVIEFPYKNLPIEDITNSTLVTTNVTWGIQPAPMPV

B1: irisin: secreted cleaved form of FNDC5; recombinant human/mouse irisin with C-terminal his tag produced in HEK293 cells (protein)
chain: DSPSAPVNVTVRHLKANSAVVSWDVLEDEVVIGFAISQQKKDVRMLRFIQEVNTTTRSCALWDLEEDTEYIVHVQAISIQGQSPASEPVLFKTPREAEKMASKNKDEVTMKE
modifications: left off: small tags and cut ends
notes: secreted cleaved form of FNDC5; recombinant human/mouse irisin with C-terminal his tag produced in HEK293 cells
[1]
  half-life in vivo: less than an hour
Integrin αV/β5
  direct interaction with integrin αV/β5 (HDX/MS): directly binds integrin αV/β5
